Residue numbers refer to the chain shown, from its start. No end group written: not given here.
T1: biotinylated Compound 1 (biotinylated CCR4 partial peptide) (human, also: biotinylated, site not given here)
T1 peptide: DESIYSNYYLYESIPKPC

T2: BSA-Compound 1 conjugate (human CCR4 extracellular region peptide Compound 1 conjugated to bovine serum … (human, also: conjugated to BSA via SMCC))
T2 construct: Coated antigen of the ELISA; also called CCR4 partial peptide
T2 peptide: DESIYSNYYLYESIPKPC

T3: human CCR4 on CCR4/EL-4 cells (CCR4-high-expressing cells) (human, UniProt P51679 1-360)
T3 construct: also called human CCR4-high-expressing cell
T3 sequence: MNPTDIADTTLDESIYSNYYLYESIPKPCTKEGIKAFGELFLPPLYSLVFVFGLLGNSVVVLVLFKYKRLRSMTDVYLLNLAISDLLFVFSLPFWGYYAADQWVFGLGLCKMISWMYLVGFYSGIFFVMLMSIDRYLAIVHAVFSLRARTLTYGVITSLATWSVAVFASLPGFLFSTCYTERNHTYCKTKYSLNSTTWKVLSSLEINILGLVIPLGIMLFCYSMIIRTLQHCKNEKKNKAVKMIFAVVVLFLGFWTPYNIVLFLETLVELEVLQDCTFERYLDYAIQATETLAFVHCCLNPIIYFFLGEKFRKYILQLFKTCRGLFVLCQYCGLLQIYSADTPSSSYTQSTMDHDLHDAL

B1: anti-CCR4 CDR-grafted antibody Gal0LV0 (antibody, V domains shown)
VH: EVQLVESGGDLVQPGRSLRLSCAASGFIFSNYGMSWVRQAPGKGLEWVATISSASTYSYYPDSVKGRFTISRDNAKNSLYLQMNSLRVEDTALYYCARHSDGNFAFGYWGQGTLVTVSS
VL: DIVMTQSPLSLPVTPGEPASISCRSSRNIVHINGDTYLEWYLQKPGQSPQLLIYKVSNRFSGVPDRFSGSGSGTDFTLKISRVEAEDVGVYYCFQGSLLPWTFGQGTKVEIK
notes: Expressed from pKANTEX93 with human CH and CL; CDR alone grafted
B2: anti-CCR4 CDR-grafted antibody HV0LV0 (antibody, V domains shown)
VH: B1 VH with D10G, R16G, I28T, A49S, A75S, S78T, V88A, L93V
VL: B1 VL
notes: Expressed from pKANTEX93 with human CH and CL
B3: anti-CCR4 human chimeric antibody KM2760 (antibody, V domains shown)
VH: EVQLVESGGDLMKPGGSLKISCAASGFIFSNYGMSWVRQTPDMRLEWVATISSASTYSYYPDSVKGRFTISRDNAENSLYLQMNSLRSEDTGIYYCGRHSDGNFAFGYWGRGTLVTVSA
VL: DVLMTQTPLSLPVSLGDQASISCRSSRNIVHINGDTYLEWYLQRPGQSPKLLIYKVSNRFSGVPDRFSGSGSGTDFTLKISRVEAEDLGVYYCFQGSLLPWTFGGGTRLEIRR
notes: Produced by transformant KM2760 (FERM BP-7054); also called anti-CCR4 chimeric antibody KM2760

Tests used:
[1] = biological target: T1, biotinylated Compound 1 (biotinylated …); experiment: BIAcore 2000, 4 ug/ml antibody over biotinylated Compound 1 on SA sensor tip
Method: In order to measure the binding activity in more detail, the binding activity of various purified antibodies was measured by using BIAcore 2000 (manufactured by BIACORE) as follows. In this case, HBS-EP (manufactured by BIACORE) was used as the buffer for diluting samples and for the measurement. First, 5 μl of 0.01 μg/ml solution of Compound 1 as a biotinylated CCR4 partial peptide was added to a sensor tip SA (manufactured by BIACORE) at a flow rate of 5 μl/minute and immobilized on the sensor tip.
To the prepared biotinylated compound 1-immobilized sensor tip, 20 μl of 4 μg/ml solution of each of the purified antibodies was added at a flow rate of 5 μl/minute, and after completion of the addition, the dissociation reaction was monitored for 4 minutes and then the sensor tip surface was regenerated by adding 5 μl of 10 mM HCl twice. In this way, a binding reaction curve (sensorgram) for Compound 1 was obtained.

[2] = biological target: T2, BSA-Compound 1 conjugate (human CCR4 …); experiment: ELISA, COS-7 culture supernatant on BSA-Compound 1 conjugate
Method: Into a 96 well ELISA plate (manufactured by Greiner), 0.05 μg/ml of the prepared conjugate was dispensed in at 50 μl/well and allowed to stand at 4° C. overnight for adsorption. After washing with PBS, PBS containing 1% BSA (hereinafter referred to as “1% BSA-PBS”) was added thereto at 100 μl/well and allowed to react at room temperature for 1 hour to block the remaining active groups. After washing each well with PBS containing 0.05% Tween 20 (hereinafter referred to as “Tween-PBS”), a culture supernatant of the transformant was added at 50 μl/well and allowed to react at room temperature for 1 hour. After the reaction and subsequent washing of each well with Tween-PBS, a peroxidase-labeled goat anti-human IgG(γ) antibody solution (manufactured by American Qualex) diluted 6,000 folds with 1% BSA-PBS was added as a secondary antibody solution at 50 μl/well and allowed to react at room temperature for 1 hour. After the reaction and subsequent washing with Tween-PBS, an ABTS substrate solution (a solution prepared by dissolving 0.55 g of 2,2′-azino-bis(3-ethylbenzothiazoline-6-sulfonic acid) ammonium in 1 liter of 0.1 M citrate buffer (pH 4.2) and adding 1 μl/ml hydrogen peroxide just before use) was added at 50 μl well to develop color, and the reaction was stopped 20 minutes thereafter by adding 5% SDS solution at 50 μl/well. Thereafter, absorbance at 415 nm was measured.

[3] = biological target: T2, BSA-Compound 1 conjugate (human CCR4 …); experiment: ELISA on BSA-Compound 1 conjugate, reference antibody
[4] = biological target: T3, human CCR4 on CCR4/EL-4 cells …; experiment: flow cytometry (immunofluorescent method) on CCR4/EL-4 cells, 10 ug/ml antibody, reference antibody
Method: Into a 96 well plate, 2×10⁵ or more of CCR4/EL-4 cells, CCR4-high-expressing cells obtained in Reference Example 1, were dispensed. An antibody solution was prepared by diluting each of the purified antibodies and a human immunoglobulin (manufactured by Welfide) for preventing nonspecific staining to give concentrations of 10 μg/ml and 3.75 mg/ml, respectively, with a buffer for FACS (1% BSA-PBS, 0.02% EDTA, 0.05% NaN₃), and the antibody solution was added at 100 μl/well and allowed to react for 30 minutes in ice. As a negative control, an anti-human IL-5 receptor α chain antibody (WO97/10354) was reacted with the same concentration. After washing twice with 200 μl/well of the buffer for FACS, a PE-labeled anti-human IgG antibody (manufactured by Coulter) diluted 100 times was added at 50 μl/well. After the reaction in ice under shading and subsequent washing three times with 200 μl/well of the buffer for FACS, the reaction product was suspended in 500 µl of the buffer for FACS and the fluorescence intensity was measured by using a flow cytometer.

Row | Binder | binding result [1] | binding result [2] | binding result [3] | binding result [4]
1 | B1 | binds | binds | – | –
2 | B2 | – | binds | – | –
3 | B3 | – | – | binds | binds
